Reference: paper PMC10197132

Experiments:
[1] = biological target: G3-SEAP (human-secreted embryonic alkaline phosphatase with an N-terminal Gly3 sequence) (human); assay: SEC-MALS
G3-SEAP = G3-SEAP (human, UniProt P05187); assay: fluorescence polarization

“G3-SEAP (human-secreted embryonic alkaline phosphatase with an N-terminal Gly3 sequence) (enzyme)” gave a stoichiometry N [1] of 2.

B1: FAM-23DR DNA-RNA hybrid (DNA:RNA)
DNA: CGGTGTGGTCGCTGTAATCAGAG
RNA: CUCUGAUUACAGCGACCACACCG
B1: no binding (G3-SEAP).
